This note sets out measurements from paper PMC8546571, “Methylation of PhoP by CheR Regulates Salmonella Virulence” (mBio, 2021).

Series [1] relates to PhoP from control Salmonella cells (Salmonella enterica serovar Typhimurium 14028S). As to the kind of experiment: ITC. As to conditions: EMSA: 25 mM Tris-HCl pH 8.0, 50 mM KCl, 5 mM MgCl2, 0.5 mM EDTA, 10% glycerol, room temp 20 min, 1.6 pmol probe in 10 ul; ITC: 6.15 uM DNA into 0.6 uM PhoP …. For orientation: In EMSA bound probe runs differently from free probe, usually more slowly.

Series [2] relates to PhoP from cheR-overexpressing cells (methylated PhoP) (Salmonella enterica serovar Typhimurium 14028S). The series can be described thus: ITC. As to conditions: EMSA: 25 mM Tris-HCl pH 8.0, 50 mM KCl, 5 mM MgCl2, 0.5 mM EDTA, 10% glycerol, room temp 20 min, 1.6 pmol probe in 10 ul; ITC: 6.15 uM DNA into 0.6 uM PhoP ….
Series [3] concerns the molecule itself. As to the kind of experiment: cross-linking; purified His-tagged PhoP incubated with 1 mM DSS in 50 mM HEPES-Na pH 7.5, 150 mM NaCl, 10 mM MgCl2, 20% glycerol, 0.05% Tween 20, 25°C, 30 min; Western blot with anti-His antibody; monomer to dimer.

Positions count from the first letter of the chain named. Numbers in names are those of the source.

For orientation: Kd means a measure of binding affinity in units of concentration. With “phoP promoter DNA / PhoP box consensus (ITC)”, the Kd in series [1] came to 0.122 nM; in series [2], 0.476 nM.

B1: wild-type PhoP (6×His-tagged, recombinant) (natural protein)
chain: MMRVLVVEDNALLRHHLKVQLQDSGHQVDAAEDAREADYYLNEHLPDIAIVDLGLPDEDGLSLIRRWRSSDVSLPVLVLTAREGWQDKVEVLSSGADDYVTKPFHIEEVMARMQALMRRNSGLASQVINIPPFQVDLSRRELSVNEEVIKLTAFEYTIMETLIRNNGKVVSKDSLMLQLYPDAELRESHTIDVLMGRLRKKIQAQYPHDVITTVRGQGYLFELR
notes: PhoP, response regulator of the PhoP/PhoQ two-component system, S. Typhimurium strain 14028S; phoP PCR amplified from genomic DNA and cloned into pQE80; also called PhoP WT; source: E. coli BL21, purified (Ni-NTA); not shown: His6, C-terminal, kept
B1: the binding result in series [3] was “binds”.

B2: PhoP purified from the bacteria with an endogenous level of cheR expression (natural protein)
chain: B1 chain
notes: PhoP, S. Typhimurium strain 14028S, His-tagged and purified from Salmonella; also called PhoP from control cells; PhoP isolated from the wild-type strain; source: S. Typhimurium with an endogenous level of cheR expression, purified (His tag); not shown: His6, C-terminal, kept
Regarding B2, the binding result in series [3] is “binds”.

B3: PhoP E8A variant (natural protein)
chain: B1 chain with E8A
notes: PhoP, S. Typhimurium strain 14028S, with E8A; source: E. coli BL21, purified (Ni-NTA); not shown: His6, C-terminal, kept
As for B3, the binding result in series [3] was “binds”.

B4: PhoP D9A variant (natural protein)
chain: B1 chain with D9A
notes: PhoP, S. Typhimurium strain 14028S, with D9A; source: E. coli BL21, purified (Ni-NTA); not shown: His6, C-terminal, kept
B4: the binding result in series [3] is “binds”.

B5: PhoP E107A variant (natural protein)
chain: B1 chain with E107A
notes: PhoP, S. Typhimurium strain 14028S, with E107A; source: E. coli BL21, purified (Ni-NTA); not shown: His6, C-terminal, kept
As to B5, the binding result in series [3] is “binds”.
